From article doi:10.1101/2020.06.17.157057
Where two headings read alike, the source gives them in different places.

Columns and labels:
[1] = biological target: Maltose Binding Protein (MBP), tethered between beads by DNA handles [MBP: P0AEX9]; test: optical tweezers
[2] = biological target: Maltose Binding Protein (MBP), tethered between beads by DNA handles [MBP: P0AEX9]; test: optical tweezers; remark: listed apart in the source

Substance | tethers that switched to a prolonged unfolded state [1] [%] | tethers that switched to a prolonged unfolded state [2] [%]
GroEL398A (slowly hydrolyzing GroEL) (from UniProt P0A6F5 1-548) (natural protein) | 30 | –
GroEL (wild type) (from UniProt P0A6F5 2-525) (natural protein) | 50 | 20
